The results in this text go back to patent US20210324359A1, “USE OF GRAM-NEGATIVE LYSIN-ANTIMICROBIAL PEPTIDE (AMP) POLYPEPTIDE CONSTRUCTS IN TREATING ENDOCARDITIS” (priority 2020, published 2021).

For this assay, the system named is P. aeruginosa. Briefly: MIC, modified CLSI broth microdilution in CAA medium without or with […] human serum (Table 4). As to CAA/HuS MIC: CAA supplemented with 2.5% human serum. The assay is classed as cell-based, Pseudomonas aeruginosa. The source says:
2015. […] Clinical and Laboratory Standards Institute, Wayne, Pa.
On the technique in general: Dilution methods test growth across graded concentrations, often in twofold steps.

B1: GN370: lysin-AMP construct: MIDR, FIRL and NPTH moieties N-terminal to GN202 lysin (SEQ ID NO: 44) (protein)
chain: MIDRFIRLNPTHGPRRPRRPGRRAPVRTSQRGIDLIKSFEGLRLSAYQDSVGVWTIGYGTTRGVTRYMTITVEQAERMLSNDIQRFEPELDRLAKVPLNQNQWDALMSFVYNLGAANLASSTLLDLLNKGDYQGAADQFPHWVNAGGKRLDGLVKRRAAERALFLEPLS
Take B1: the “CAA MIC” value (CAA medium, no human serum) came out at 16000 µg/mL. For the same molecule, the “CAA/HuS MIC” value (CAA supplemented with […] human serum) is 4000 µg/mL.
